In the array DNA melting data of Ke et al. one finds Tm data, which are given here for 47 substances.

A short description of the series: melting temperature; melt of duplexes. The following applies: sodium 0.0675 M; strand 1 µM.
By Tm is commonly meant the temperature at the midpoint of the melting transition. As for “CGACGTGCTCTATGTGCTG+CAGCACATATTGCACGTCG ((((((((..(((((((((+)))))))))..))))))))”, the Tm was 50.9 °C. For “CGACGTGCATTATGTGCTG+CAGCACATGGTGCACGTCG (((((((((..((((((((+))))))))..)))))))))”, the melting temperature (Tm) amounted to 51.8 °C. For “CGACGTGCGGTATGTGCTG+CAGCACATCAAGCACGTCG ((((((((...((((((((+))))))))...))))))))”, the midpoint of thermal melting (Tm) was 54 °C.

“CGACGTGCTCAATGTGCTG+CAGCACATACAGCACGTCG (((((((((..((((((((+))))))))..)))))))))”: the midpoint of thermal melting (Tm) was 50.7 °C. The result for “CGACGTGCTAGATGTGCTG+CAGCACATCTAGCACGTCG (((((((((((((((((((+)))))))))))))))))))” reads 63.6 °C; that for “CGACGTGCCAAATGTGCTG+CAGCACATGAAGCACGTCG ((((((((...((((((((+))))))))...))))))))”, 51.2 °C.

Regarding “CGACGTGCGGAATGTGCTG+CAGCACATGGAGCACGTCG ((((((((...((((((((+))))))))...))))))))”, the midpoint of thermal melting (Tm) is 62.8 °C. Turning to “CGACGTGCTAAATGTGCTG+CAGCACATGCAGCACGTCG (((((((((..((((((((+))))))))..)))))))))”, the Tm worked out at 55.2 °C. Regarding “CGACGTGCATAATGTGCTG+CAGCACATTAGGCACGTCG ((((((((.((((((((((+)))))))))).))))))))”, the melting temperature (Tm) amounted to 57.7 °C.

Regarding “CGACGTGCTATATGTGCTG+CAGCACATGGCGCACGTCG ((((((((...((((((((+))))))))...))))))))”, the Tm is 48.5 °C. “CGACGTGCCAGATGTGCTG+CAGCACATCTGGCACGTCG (((((((((((((((((((+)))))))))))))))))))”: the Tm was 66.5 °C. For the substance “CGACGTGCGAGATGTGCTG+CAGCACATCATGCACGTCG ((((((((..(((((((((+)))))))))..))))))))”, the Tm came to 56.7 °C. The result for “CGACGTGCTATATGTGCTG+CAGCACATGTCGCACGTCG ((((((((.(.((((((((+)))))))).).))))))))” reads 51.4 °C. The result for “CGACGTGCAATATGTGCTG+CAGCACATTCTGCACGTCG (((((((((..((((((((+))))))))..)))))))))” reads 50.7 °C; that for “CGACGTGCGCTATGTGCTG+CAGCACATTCCGCACGTCG (((((((((..((((((((+))))))))..)))))))))”, 52.1 °C. With “CGACGTGCGCCATGTGCTG+CAGCACATAGAGCACGTCG ((((((((.(.((((((((+)))))))).).))))))))”, the Tm worked out at 54.4 °C. As to “CGACGTGCGTGATGTGCTG+CAGCACATCTCGCACGTCG (((((((((.(((((((((+))))))))).)))))))))”, the melting temperature (Tm) was found to be 61.3 °C. For “CGACGTGCCACATGTGCTG+CAGCACATTCCGCACGTCG ((((((((...((((((((+))))))))...))))))))”, the Tm stood at 47.1 °C. For the substance “CGACGTGCTTTATGTGCTG+CAGCACATGGAGCACGTCG (((((((((..((((((((+))))))))..)))))))))”, the Tm was 54.2 °C. The result for “CGACGTGCAGTATGTGCTG+CAGCACATTGTGCACGTCG (((((((((..((((((((+))))))))..)))))))))” reads 48.6 °C.

As to “CGACGTGCCCAATGTGCTG+CAGCACATCGCGCACGTCG ((((((((.(.((((((((+)))))))).).))))))))”, the Tm worked out at 48.7 °C. As for “CGACGTGCCGAATGTGCTG+CAGCACATGGGGCACGTCG (((((((((..((((((((+))))))))..)))))))))”, the Tm is 56.8 °C. With “CGACGTGCTGAATGTGCTG+CAGCACATTCAGCACGTCG (((((((((((((((((((+)))))))))))))))))))” the figure was 64.4 °C; with “CGACGTGCCTGATGTGCTG+CAGCACATCCCGCACGTCG ((((((((..(((((((((+)))))))))..))))))))”, 53 °C. On to “CGACGTGCTGCATGTGCTG+CAGCACATGTTGCACGTCG ((((((((..(((((((((+)))))))))..))))))))”, for which the Tm worked out at 56.4 °C. On to “CGACGTGCCCCATGTGCTG+CAGCACATGGCGCACGTCG ((((((((.((((((((((+)))))))))).))))))))”, for which the Tm amounted to 57.3 °C. With “CGACGTGCCGAATGTGCTG+CAGCACATACAGCACGTCG ((((((((.(.((((((((+)))))))).).))))))))”, the Tm stood at 50.4 °C. Take “CGACGTGCTTGATGTGCTG+CAGCACATCGGGCACGTCG ((((((((..(((((((((+)))))))))..))))))))”: the Tm amounted to 56.8 °C. Take “CGACGTGCACCATGTGCTG+CAGCACATCAGGCACGTCG ((((((((...((((((((+))))))))...))))))))”: the Tm is 42.9 °C. The result for “CGACGTGCTATATGTGCTG+CAGCACATCCTGCACGTCG ((((((((...((((((((+))))))))...))))))))” reads 48.3 °C. “CGACGTGCCTAATGTGCTG+CAGCACATCTTGCACGTCG ((((((((...((((((((+))))))))...))))))))”: the Tm stood at 48 °C. Regarding “CGACGTGCTACATGTGCTG+CAGCACATCCCGCACGTCG ((((((((...((((((((+))))))))...))))))))”, the midpoint of thermal melting (Tm) turned out to be 47.4 °C. On to “CGACGTGCTCGATGTGCTG+CAGCACATCATGCACGTCG ((((((((..(((((((((+)))))))))..))))))))”, for which the midpoint of thermal melting (Tm) turned out to be 54.1 °C. As for “CGACGTGCCTGATGTGCTG+CAGCACATATCGCACGTCG ((((((((...((((((((+))))))))...))))))))”, the Tm worked out at 47.7 °C. In the case of “CGACGTGCGTTATGTGCTG+CAGCACATTGCGCACGTCG (((((((((..((((((((+))))))))..)))))))))”, the Tm turned out to be 55.7 °C.

For the substance “CGACGTGCGAAATGTGCTG+CAGCACATTTCGCACGTCG (((((((((((((((((((+)))))))))))))))))))”, the Tm worked out at 64.7 °C. The result for “CGACGTGCGCCATGTGCTG+CAGCACATATGGCACGTCG ((((((((...((((((((+))))))))...))))))))” reads 48.1 °C; that for “CGACGTGCCGGATGTGCTG+CAGCACATCTCGCACGTCG ((((((((..(((((((((+)))))))))..))))))))”, 54.1 °C; that for “CGACGTGCAGAATGTGCTG+CAGCACATACTGCACGTCG ((((((((((.((((((((+)))))))).))))))))))”, 57.8 °C. On to “CGACGTGCTTGATGTGCTG+CAGCACATTTGGCACGTCG ((((((((...((((((((+))))))))...))))))))”, for which the midpoint of thermal melting (Tm) came to 50.8 °C. For the substance “CGACGTGCTTGATGTGCTG+CAGCACATGAAGCACGTCG ((((((((((.((((((((+)))))))).))))))))))”, the Tm amounted to 56.6 °C. For the substance “CGACGTGCCCCATGTGCTG+CAGCACATTCAGCACGTCG ((((((((...((((((((+))))))))...))))))))”, the Tm was 47.7 °C. With “CGACGTGCGGAATGTGCTG+CAGCACATGTAGCACGTCG ((((((((...((((((((+))))))))...))))))))” the figure was 60.4 °C; with “CGACGTGCCTAATGTGCTG+CAGCACATGGCGCACGTCG ((((((((...((((((((+))))))))...))))))))”, 51.1 °C; with “CGACGTGCGAGATGTGCTG+CAGCACATGACGCACGTCG (((((((((..((((((((+))))))))..)))))))))”, 53.2 °C. For the substance “CGACGTGCAATATGTGCTG+CAGCACATTAAGCACGTCG ((((((((...((((((((+))))))))...))))))))”, the Tm was 50.1 °C.

As for “CGACGTGCCCTATGTGCTG+CAGCACATATGGCACGTCG (((((((((.(((((((((+))))))))).)))))))))”, the melting temperature (Tm) is 55.8 °C.
